# Source: IntAct's records for PubMed 21525957
# B1: Protein phosphatase Slingshot homolog 1 (Homo sapiens), Q8WYL5 (parent)
# chain: MALVTLQRSPTPSAASSSASNSELEAGSEEDRKLNLSLSESFFMVKGAALFLQQGSSPQGQRSLQHPHKHAGDLPQHLQVMINLLRCEDRIKLAVRLESAWADRVRYMVVVYSSGRQDTEENILLGVDFSSKESKSCTIGMVLRLWSDTKIHLDGDGGFSVSTAGRMHIFKPVSVQAMWSALQVLHKACEVARRHNYFPGGVALIWATYYESCISSEQSCINEWNAMQDLESTRPDSPALFVDKPTEGERTERLIKAKLRSIMMSQDLENVTSKEIRNELEKQMNCNLKELKEFIDNEMLLILGQMDKPSLIFDHLYLGSEWNASNLEELQGSGVDYILNVTREIDNFFPGLFAYHNIRVYDEETTDLLAHWNEAYHFINKAKRNHSKCLVHCKMGVSRSASTVIAYAMKEFGWPLEKAYNYVKQKRSITRPNAGFMRQLSEYEGILDASKQRHNKLWRQQTDSSLQQPVDDPAGPGDFLPETPDGTPESQLPFLDDAAQPGLGPPLPCCFRRLSDPLLPSPEDETGSLVHLEDPEREALLEEAAPPAEVHRPARQPQQGSGLCEKDVKKKLEFGSPKGRSGSLLQVEETEREEGLGAGRWGQLPTQLDQNLLNSENLNNNSKRSCPNGMEDDAIFGILNKVKPSYKSCADCMYPTASGAPEASRERCEDPNAPAICTQPAFLPHITSSPVAHLASRSRVPEKPASGPTEPPPFLPPAGSRRADTSGPGAGAALEPPASLLEPSRETPKVLPKSLLLKNSHCDKNPPSTEVVIKEESSPKKDMKPAKDLRLLFSNESEKPTTNSYLMQHQESIIQLQKAGLVRKHTKELERLKSVPADPAPPSRDGPASRLEASIPEESQDPAALHELGPLVMPSQAGSDEKSEAAPASLEGGSLKSPPPFFYRLDHTSSFSKDFLKTICYTPTSSSMSSNLTRSSSSDSIHSVRGKPGLVKQRTQEIETRLRLAGLTVSSPLKRSHSLAKLGSLTFSTEDLSSEADPSTVADSQDTTLSESSFLHEPQGTPRDPAATSKPSGKPAPENLKSPSWMSKS
# Variants of: B1
# Details: with cof1_human CFL1, P23528
# Chain of cof1_human CFL1, P23528 (P23528 whole entry): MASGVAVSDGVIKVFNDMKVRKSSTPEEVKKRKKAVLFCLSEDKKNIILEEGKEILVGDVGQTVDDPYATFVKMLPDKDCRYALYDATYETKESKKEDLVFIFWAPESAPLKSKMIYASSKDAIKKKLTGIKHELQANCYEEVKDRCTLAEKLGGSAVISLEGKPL
row,Variant,effect of a mutation on the interaction
1,S402D,disrupting interaction

# Variants of: B1
# Details: with cof1_human CFL1, P23528
# Remark: another data set of the same source
row,Variant,effect of a mutation on the interaction
1,S402E,disrupting interaction
